We go through one substance from publication PMC6448830.

For the assay, the target named is HA-2B4 (A. trivirgatus 2B4 ectodomain fused to human 2B4 from residue 219 to the stop codon), on COS-7 cells (Aotus trivirgatus | human) (UniProt Q9BZW8). Briefly: flow cytometry on cells; cells incubated with the Fc fusion protein (8 μg/mL or a range of concentrations), then anti-human IgG (Fc specific) mAb and anti-mouse IgG-PE; 20% rabbit serum and 1% fetal bovine serum in PBS.

A43-Fc fusion protein showed a percent of 2B4-transfected COS-7 cells binding A43-Fc (highest dose) of 80.9%.
